{
  "source": "paper PMC9569990",
  "about": "(International Journal of Molecular Sciences, 2022)",
  "binders": {"B1": {"name": "Human S100P protein (recombinant, Ca^2+-loaded) (natural protein)", "chain": "MTELETAMGMIIDVFSRYSGSEGSTQTLTKGELKVLMEKELPGFLQSGKDKDAVDKLLKDLDANGDAQVDFSEFIVFVAAITSACHKYFEKAGLK", "notes": "S100P protein, human, recombinant; probably the whole 95-residue protein (surmise); also called wild-type S100P; WT S100P; source: E. coli, prepared as previously described [28]"}},
  "assay_in_all_cases": "SPR; cytokine immobilised on ProteOn GLH sensor chip by amine coupling (9,000-14,000 RU); S100P (wild type or mutant) as analyte, 62 nM-16 µM; 25 °C; 10 mM HEPES, 150 mM NaCl, 1 mM CaCl2, 0.05% TWEEN 20, pH 7.4; heterogeneous ligand model (two ligand populations), one-site model for IL-13; values averaged over analyte concentrations (n = 3-5)",
  "conditions_in_all_cases": "both partners purified",
  "key": {"Interleukin-21": {"target": "T1, Interleukin-21 (human, UniProt Q9HBE4 25-162)", "T1 construct": "Interleukin-21, human, UniProt Q9HBE4; see the manufacturer's catalogue number; also called IL-21; source: bought: PeproTech (source E. coli)", "T1 sequence (Q9HBE4 25-162)": "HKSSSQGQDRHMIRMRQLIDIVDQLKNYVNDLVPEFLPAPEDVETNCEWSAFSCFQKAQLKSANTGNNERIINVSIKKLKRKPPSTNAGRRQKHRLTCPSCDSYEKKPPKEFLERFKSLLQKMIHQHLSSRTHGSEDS"}, "Prolactin": {"target": "T2, Prolactin (human, UniProt P01236 29-227)", "T2 construct": "Prolactin, human, UniProt P01236; see the manufacturer's catalogue number; also called PRL; source: bought: PeproTech (source E. coli)", "T2 sequence (looked up)": "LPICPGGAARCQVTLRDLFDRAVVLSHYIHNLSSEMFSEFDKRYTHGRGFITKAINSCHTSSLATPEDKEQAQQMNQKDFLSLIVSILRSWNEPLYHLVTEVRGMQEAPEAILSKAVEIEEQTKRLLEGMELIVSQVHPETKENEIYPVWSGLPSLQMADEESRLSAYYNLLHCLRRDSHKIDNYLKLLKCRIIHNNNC"}, "Interleukin-10": {"target": "T3, Interleukin-10 (human, UniProt P22301 19-178)", "T3 construct": "Interleukin-10, human, UniProt P22301; see the manufacturer's catalogue number; also called IL-10; source: bought: PeproTech (source E. coli)", "T3 sequence (P22301 19-178)": "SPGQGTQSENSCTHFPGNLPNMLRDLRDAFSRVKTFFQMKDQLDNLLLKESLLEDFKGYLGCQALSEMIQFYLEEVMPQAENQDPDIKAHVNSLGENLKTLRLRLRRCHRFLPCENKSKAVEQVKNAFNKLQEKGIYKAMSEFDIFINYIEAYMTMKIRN"}, "Interleukin-26": {"target": "T4, Interleukin-26 (human, UniProt Q9NPH9 22-171)", "T4 construct": "Interleukin-26, human, UniProt Q9NPH9; see the manufacturer's catalogue number; also called IL-26; source: bought: R&D Systems (source E. coli)", "T4 sequence (looked up)": "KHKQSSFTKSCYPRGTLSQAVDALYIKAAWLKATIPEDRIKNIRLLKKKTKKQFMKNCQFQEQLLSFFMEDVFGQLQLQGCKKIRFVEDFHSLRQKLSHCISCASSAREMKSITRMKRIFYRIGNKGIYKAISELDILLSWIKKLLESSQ"}, "Interferon ω-1": {"target": "T5, Interferon ω-1 (human, UniProt P05000 22-195)", "T5 construct": "Interferon omega-1, human, UniProt P05000; see the manufacturer's catalogue number; also called IFN-ω1; source: bought: PeproTech (source E. coli)", "T5 sequence (P05000 22-195)": "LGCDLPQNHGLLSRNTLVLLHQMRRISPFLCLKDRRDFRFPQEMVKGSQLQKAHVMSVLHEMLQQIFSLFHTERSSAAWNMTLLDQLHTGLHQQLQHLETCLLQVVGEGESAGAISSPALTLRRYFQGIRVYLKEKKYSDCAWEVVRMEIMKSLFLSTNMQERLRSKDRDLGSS"}, "[1]": {"target": "T6, Granulocyte-macrophage colony-stimulating factor (human, UniProt P04141 18-144)", "T6 construct": "Granulocyte-macrophage colony-stimulating factor, human, UniProt P04141; see the manufacturer's catalogue number; also called GM-CSF; source: bought: PeproTech (source E. coli)", "T6 sequence (P04141 18-144)": "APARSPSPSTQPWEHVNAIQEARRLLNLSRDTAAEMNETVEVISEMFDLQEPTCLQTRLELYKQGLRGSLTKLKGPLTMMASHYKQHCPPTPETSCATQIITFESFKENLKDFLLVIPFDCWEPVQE"}, "Interleukin-13": {"target": "T7, Interleukin-13 (human, UniProt P35225 25-146)", "T7 construct": "Interleukin-13, human, UniProt P35225; see the manufacturer's catalogue number; also called IL-13; source: bought: PeproTech (source E. coli)", "T7 sequence (P35225 25-146)": "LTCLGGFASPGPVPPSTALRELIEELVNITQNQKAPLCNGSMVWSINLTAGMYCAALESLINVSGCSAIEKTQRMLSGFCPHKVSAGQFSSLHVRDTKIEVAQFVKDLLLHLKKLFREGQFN"}},
  "data": [
    {"binder": "B1", "values": [
      {"measurement": "Kd1 (heterogeneous ligand model, population 1)", "setting": "Interleukin-21", "value": 272, "unit": "nM"},
      {"measurement": "Kd2 (heterogeneous ligand model, population 2)", "setting": "Interleukin-21", "value": 285, "unit": "nM"},
      {"measurement": "kd1 (heterogeneous ligand model, population 1)", "setting": "Interleukin-21", "value": 0.000928, "unit": "s⁻¹"},
      {"measurement": "kd2 (heterogeneous ligand model, population 2)", "setting": "Interleukin-21", "value": 0.0126, "unit": "s⁻¹"},
      {"measurement": "Kd1 (heterogeneous ligand model, population 1)", "setting": "Prolactin", "value": 54.6, "unit": "nM"},
      {"measurement": "Kd2 (heterogeneous ligand model, population 2)", "setting": "Prolactin", "value": 906, "unit": "nM"},
      {"measurement": "kd1 (heterogeneous ligand model, population 1)", "setting": "Prolactin", "value": 0.000981, "unit": "s⁻¹"},
      {"measurement": "kd2 (heterogeneous ligand model, population 2)", "setting": "Prolactin", "value": 0.0103, "unit": "s⁻¹"},
      {"measurement": "Kd1 (heterogeneous ligand model, population 1)", "setting": "Interleukin-10", "value": 2.55, "unit": "µM"},
      {"measurement": "Kd2 (heterogeneous ligand model, population 2)", "setting": "Interleukin-10", "value": 2.66, "unit": "µM"},
      {"measurement": "kd1 (heterogeneous ligand model, population 1)", "setting": "Interleukin-10", "value": 0.0106, "unit": "s⁻¹"},
      {"measurement": "kd2 (heterogeneous ligand model, population 2)", "setting": "Interleukin-10", "value": 0.000519, "unit": "s⁻¹"},
      {"measurement": "Kd1 (heterogeneous ligand model, population 1)", "setting": "Interleukin-26", "value": 9.02, "unit": "nM"},
      {"measurement": "Kd2 (heterogeneous ligand model, population 2)", "setting": "Interleukin-26", "value": 1.32, "unit": "µM"},
      {"measurement": "kd1 (heterogeneous ligand model, population 1)", "setting": "Interleukin-26", "value": 0.000144, "unit": "s⁻¹"},
      {"measurement": "kd2 (heterogeneous ligand model, population 2)", "setting": "Interleukin-26", "value": 0.00509, "unit": "s⁻¹"},
      {"measurement": "Kd1 (heterogeneous ligand model, population 1)", "setting": "Interferon ω-1", "value": 174, "unit": "nM"},
      {"measurement": "Kd2 (heterogeneous ligand model, population 2)", "setting": "Interferon ω-1", "value": 578, "unit": "nM"},
      {"measurement": "kd1 (heterogeneous ligand model, population 1)", "setting": "Interferon ω-1", "value": 0.000571, "unit": "s⁻¹"},
      {"measurement": "kd2 (heterogeneous ligand model, population 2)", "setting": "Interferon ω-1", "value": 0.00839, "unit": "s⁻¹"},
      {"measurement": "Kd1 (heterogeneous ligand model, population 1)", "setting": "[1]", "value": 245, "unit": "nM"},
      {"measurement": "Kd2 (heterogeneous ligand model, population 2)", "setting": "[1]", "value": 450, "unit": "nM"},
      {"measurement": "kd1 (heterogeneous ligand model, population 1)", "setting": "[1]", "value": 0.00113, "unit": "s⁻¹"},
      {"measurement": "kd2 (heterogeneous ligand model, population 2)", "setting": "[1]", "value": 0.0672, "unit": "s⁻¹"},
      {"measurement": "Kd", "setting": "Interleukin-13", "value": 2300, "unit": "nM"},
      {"measurement": "koff", "setting": "Interleukin-13", "value": 0.0183, "unit": "s⁻¹"}
    ]}
  ]
}
